Measured values: article doi:10.1101/2021.07.20.453048

Molecular target: Taxol-stabilized microtubules polymerised from purified bovine brain tubulin (bovine) (UniProt Q6B856)
Test: co-sedimentation

B1: His-MBP-ENKD1 (maltose-binding protein fusion of full-length human Enkurin domain containing 1) (natural protein)
chain: MCEGPSRISGPIPPDPTLCPDNYRRPTSAQGRLEGNALKLDLLTSDRALDTTAPRGPCIGPGAGEILERGQRGVGDVLLQLEGISLGPGASLKRKDPKDHEKENLRRIREIQKRFREQERSREQGQPRPLKALWRSPKYDKVESRVKAQLQEPGPASGTESAHFLRAHSRCGPGLPPPHVSSPQPTPPGPEAKEPGLGVDFIRHNARAAKRAPRRHSCSLQVLAQVLEQQRQAQEHYNATQKGHVPHYLLERRDLWRREAEARKQSQPDPAMPPGHTRMPENQRLETLTKLLQSQSQLLRELVLLPAGADSLRAQSHRAELDRKLVQVEEAIKIFSRPKVFVKMDD
B1 gave a Kd of 160 nM.
